In publication PMC2854584:

Legend:
CD4-Ig = test: pull-down
[1] = target: HIV-1YU2 gp41 transmembrane envelope glycoprotein (HIV-1 YU2) (UniProt P35961); test: gp120-gp41 association index
soluble CD4 = soluble CD4 (UniProt P01730); test: SPR
CCR5 = CCR5 (UniProt P51681); test: radioligand binding

Substance | CD4-Ig binding (relative to wild type) (CD4-Ig) | association index (relative to wild type) [1] | further results
HIV-1YU2 gp120 A60G (natural protein) | 1.46 | – | –
HIV-1YU2 gp120 A73S (natural protein) | 1.19 | – | –
HIV-1YU2 gp120 A221G (natural protein) | 0.76 | – | –
HIV-1YU2 gp120 D57A (natural protein) | 0.91 | 0.62 | –
HIV-1YU2 gp120 D78A (natural protein) | 1.13 | – | –
HIV-1YU2 gp120 D107A (natural protein) | 0.66 | – | Kd (soluble CD4): 74.3 nM; koff (soluble CD4): 0.00142 s⁻¹; kon (soluble CD4): 19100 M⁻¹ s⁻¹; fold reduction of CCR5 binding against wt gp120 (CCR5): 2 fold
HIV-1YU2 gp120 D107A/S375W (natural protein) | 0.76 | 0.61 | –
HIV-1YU2 gp120 D107Q (natural protein) | 0.69 | – | –
HIV-1YU2 gp120 D113A (natural protein) | 1.79 | – | –
HIV-1YU2 gp120 E47A (natural protein) | – | 0.64 | –
HIV-1YU2 gp120 E91A (natural protein) | 1.45 | – | –
HIV-1YU2 gp120 F53A (natural protein) | 0.29 | 0.25 | –
HIV-1YU2 gp120 F210A (natural protein) | – | 1.33 | –
HIV-1YU2 gp120 F223A (natural protein) | 0.85 | – | –
HIV-1YU2 gp120 H66A (natural protein) | – | – | Kd (soluble CD4): 172 nM; koff (soluble CD4): 0.000569 s⁻¹; kon (soluble CD4): 3320 M⁻¹ s⁻¹
HIV-1YU2 gp120 H66A/S375W (natural protein) | – | – | Kd (soluble CD4): 7.67 nM; koff (soluble CD4): 5.02e-06 s⁻¹; kon (soluble CD4): 655 M⁻¹ s⁻¹
HIV-1YU2 gp120 H72A (natural protein) | 1.11 | – | –
HIV-1YU2 gp120 I108A (natural protein) | 1.48 | – | –
HIV-1YU2 gp120 I109A (natural protein) | 0.49 | – | –
HIV-1YU2 gp120 L52A (natural protein) | 0.23 | 0.25 | –
HIV-1YU2 gp120 L111A (natural protein) | – | 0.28 | Kd (soluble CD4): 32.3 nM; koff (soluble CD4): 0.000426 s⁻¹; kon (soluble CD4): 13200 M⁻¹ s⁻¹; fold reduction of CCR5 binding against wt gp120 (CCR5): 2 fold
HIV-1YU2 gp120 L111A/S375W (natural protein) | 1.32 | – | Kd (soluble CD4): 1.12 nM; koff (soluble CD4): 1.92e-05 s⁻¹; kon (soluble CD4): 17100 M⁻¹ s⁻¹
HIV-1YU2 gp120 L111F (natural protein) | – | – | Kd (soluble CD4): 13.3 nM; koff (soluble CD4): 0.000204 s⁻¹; kon (soluble CD4): 15300 M⁻¹ s⁻¹
HIV-1YU2 gp120 L111W (natural protein) | – | – | Kd (soluble CD4): 621 nM; kon (soluble CD4): 2090 M⁻¹ s⁻¹
HIV-1YU2 gp120 L116A (natural protein) | 0.67 | – | –
HIV-1YU2 gp120 M104A (natural protein) | 1.25 | – | –
HIV-1YU2 gp120 N80A (natural protein) | 1.24 | 0.65 | –

Substance | CD4-Ig binding (relative to wild type) (CD4-Ig) | association index (relative to wild type) [1] | further results
HIV-1YU2 gp120 N99A (natural protein) | 0.97 | 0.7 | –
HIV-1YU2 gp120 P76A (natural protein) | 1.02 | 0.64 | –
HIV-1YU2 gp120 P79A (natural protein) | 1.29 | 0.64 | –
HIV-1YU2 gp120 P212A (natural protein) | 0.65 | – | –
HIV-1YU2 gp120 Q82A (natural protein) | 1.12 | 1.03 | –
HIV-1YU2 gp120 Q103A (natural protein) | 1.15 | 1.07 | –
HIV-1YU2 gp120 Q103R (natural protein) | 0.74 | – | –
HIV-1YU2 gp120 Q114N (natural protein) | 1.09 | 0.74 | –
HIV-1YU2 gp120 S110N (natural protein) | – | 0.66 | –
HIV-1YU2 gp120 S110W (natural protein) | – | 0.49 | –
HIV-1YU2 gp120 S115A (natural protein) | 1.36 | 1.12 | –
HIV-1YU2 gp120 S375W (natural protein) | 1.12 | – | Kd (soluble CD4): 0.0469 nM; koff (soluble CD4): 6.49e-07 s⁻¹; kon (soluble CD4): 13800 M⁻¹ s⁻¹
HIV-1YU2 gp120 T49A (natural protein) | 1.14 | 1.07 | –
HIV-1YU2 gp120 T51A (natural protein) | 1.02 | 1.06 | –
HIV-1YU2 gp120 T63A (natural protein) | 1.79 | – | –
HIV-1YU2 gp120 T71A (natural protein) | 0.85 | – | –
HIV-1YU2 gp120 T77A (natural protein) | 1.52 | – | –
HIV-1YU2 gp120 V68A (natural protein) | 1.12 | – | –
HIV-1YU2 gp120 V89A (natural protein) | 0.97 | – | –
HIV-1YU2 gp120 W69L (natural protein) | 0.64 | 0.89 | Kd (soluble CD4): 54.2 nM; koff (soluble CD4): 0.000526 s⁻¹; kon (soluble CD4): 9690 M⁻¹ s⁻¹; fold reduction of CCR5 binding against wt gp120 (CCR5): 2 fold
HIV-1YU2 gp120 W69L/L111W (natural protein) | – | 0.28 | Kd (soluble CD4): 871 nM; koff (soluble CD4): 0.000483 s⁻¹; kon (soluble CD4): 554 M⁻¹ s⁻¹
HIV-1YU2 gp120 W69L/S375W (natural protein) | 1.11 | 0.81 | Kd (soluble CD4): 0.846 nM; koff (soluble CD4): 9.98e-06 s⁻¹; kon (soluble CD4): 11800 M⁻¹ s⁻¹
HIV-1YU2 gp120 W96A (natural protein) | 0.66 | 0.65 | –
HIV-1YU2 gp120 W112A (natural protein) | 0.25 | – | –
HIV-1YU2 gp120 W437R (natural protein) | – | 0.64 | –
HIV-1YU2 gp120 Y61A (natural protein) | 1.33 | 0.89 | –
HIV-1YU2 gp120 exterior envelope glycoprotein, wild-type (from UniProt P35961 32-498) (natural protein) | 1 | – | –
